In paper PMC4650709:

Molecular target: Ara h 1 (peanut)
Assay: SEC; purified Ara h 1; conditions not given

For Ara h 1 (natural protein), the stoichiometry N was 3.
